Test [1] concerns the target biotinylated human CD40 (human) (UniProt P25942). The experiment in a line: SPR, BIAcore 3000 COINJECT over biotinylated human CD40; mixture after first injection; competitor BMS3h-56-5. A general note: In SPR one partner is held on a chip, and binding of the other changes the refractive index at the surface.
The target is the same in test [2]. The experiment in a line: SPR, BIAcore 3000 COINJECT over biotinylated human CD40; mixture after first injection; competitor BMS3h-193-12.
Test [3] has the same target. Briefly: SPR, BIAcore 3000, Fab injected alone over biotinylated human CD40 on SA chip.
For test [4] the target is unchanged. Briefly: SPR, BIAcore 3000 COINJECT over biotinylated human CD40; mixture after first injection; competitor G28-5 Fab.
Test [5] has the same target. The experiment in a line: SPR, BIAcore 3000, 1 µM Fab alone over biotinylated human CD40.
For test [6] the target is unchanged. The experiment in a line: SPR, BIAcore 3000 COINJECT over biotinylated human CD40; mixture after first injection; competitor Chi220 Fab.

This is an account of results in patent US20200199244A1.

biotinylated human CD40 (human), sequence (P25942 21-193 limits assumed): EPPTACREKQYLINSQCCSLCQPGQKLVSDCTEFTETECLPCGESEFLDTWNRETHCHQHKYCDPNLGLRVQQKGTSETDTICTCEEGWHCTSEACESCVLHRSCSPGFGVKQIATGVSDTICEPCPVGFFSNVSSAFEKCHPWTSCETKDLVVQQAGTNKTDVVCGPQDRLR

For Chi220 Fab', the Second Injection (% of single dAb/Fab RU) in test [1] came out at 98%; in test [2], 98%; in test [4], 39%. The same substance displayed an RU first dAb/Fab alone in test [3] of 1090 RU.
With G28-5 Fab', the Single dAb RU in test [5] came out at 730 RU. In addition, the Second Injection (% of single dAb/Fab RU) in test [1] is 94%; in test [2], 93%; in test [6] it was 11%. In test [3], this substance returned an RU first dAb/Fab alone of 730 RU.
